Test results taken from patent publication US20140072581A1.
pKd: −log10 of the molar value.

Columns and labels:
Tissue factor (TF) [1] = biological target: Tissue factor (TF) (UniProt P13726); experiment: SPR; storage 7 d RT; SD 2.E-11; control row printed a second time
Tissue factor (TF) [2] = biological target: Tissue factor (TF) (UniProt P13726); experiment: SPR; Fab captured on anti-hIgG chip, TF flowed over at 300 nM
Tissue factor (TF) [3] = biological target: Tissue factor (TF) (UniProt P13726); experiment: SPR; storage 7 d RT; SD 2.E-11
Tissue factor (TF) [4] = biological target: Tissue factor (TF) (UniProt P13726); experiment: SPR; average of measurements with different directionality
HER2 [5] = biological target: HER2 (UniProt P04626); experiment: as above
[6] = biological target: CD19 on RAJI (CD19+) cells (UniProt P15391); experiment: live cell ELISA on RAJI (CD19+) cells; legend: OD450 below 0.100 at 1/60 dilution, but higher dilutions positive (higher than neg control)
[7] = biological target: CD3 on HBP-ALL (CD3+) cells (UniProt P07766); experiment: live cell ELISA on HBP-ALL (CD3+) cells; OD450 grade at 1/60 dilution
HER2 [8] = biological target: HER2 (UniProt P04626); experiment: SPR; storage 7 d RT; SD 1.E-10
HER2 [9] = biological target: HER2 (UniProt P04626); experiment: SPR; storage -80 (fresh protein); SD 1.E-10
HER2 [10] = biological target: HER2 (UniProt P04626); experiment: SPR; storage -80 (fresh protein); SD 1.E-10; control row printed a second time
HER2 [11] = biological target: HER2 (UniProt P04626); experiment: SPR; storage 7 d RT; SD 1.E-10; control row printed a second time

In the case of Fab D3H44 (control), variant 696, the pKd (Tissue factor (TF) [1]) was 10.10, the pKd (Tissue factor (TF) [2]) was 10.82 and the pKd (Tissue factor (TF) [3]) was 10.10. It also gave a pKd (Tissue factor (TF) [4]) of 10.29.

“Variant 506, control antibody that binds HER2, based on the sequence of Herceptin” was tested, and the pKd (HER2 [5]) was 9.28.

In the case of “teplizumab-hOKT3-CD3 FSA, variant 2177 (antibody)”, the OD450 at 1/60 dilution [6] was < 0.1 od and the OD450 at 1/60 dilution [7] was > 2 od.

In the case of Fab 4D5 (control), variant 695, the pKd (HER2 [8]) was 9.10, the pKd (HER2 [9]) was 9.22 and the pKd (HER2 [10]) was 9.22. For the same substance, the pKd (HER2 [11]) was 9.10 and the pKd (HER2 [5]) was 9.08.
